From PMC8584343, “Probing the Structural Dynamics of the Activation Gate of KcsA Using Homo-FRET Measurements” (International Journal of Molecular Sciences, 2021)

B1: TMR-labeled G116C W26, 68, 87, 113F KcsA (full-length) (natural protein, S. lividans, UniProt P0A334 1-160, looked up)
chain: MPPMLSGLLARLVKLLLGRHGSALHFRAAGAATVLLVIVLLAGSYLAVLAERGAPGAQLITYPRALWFSVETATTVGYGDLYPVTLFGRLVAVVVMVAGITSFGLVTAALATFFVCREQERRGHFVRHSEKAAEEAYTRTTRALHERFDRLERMLDDNRR
modifications: tetramethylrhodamine-5-maleimide (TMR) conjugated to cysteine 116; final dye-to-protein molar ratio D:P 0.05 to 0.60, so not every subunit carries a dye
notes: KcsA potassium channel from S. lividans, full-length subunit, with four of the five Trp mutated to Phe (W67 left) and G116C for labelling; Homotetrameric channel; Plasmids pQE-60 and pQE-1 are named for G116C W67 and G116C WT; also called TMR-labeled G116C W67 KcsA; TMR conjugated G116C W67 KcsA; source: E. coli M15 (pRep4), purified (IMAC), labelled with tetramethylrhodamine-5-maleimide, …
B2: C-terminal truncated (Δ125) TMR-labeled G116C W67 KcsA (domain or fragment, S. lividans, UniProt P0A334 1-124, looked up)
chain: MPPMLSGLLARLVKLLLGRHGSALHFRAAGAATVLLVIVLLAGSYLAVLAERGAPGAQLITYPRALWFSVETATTVGYGDLYPVTLFGRLVAVVVMVAGITSFGLVTAALATFFVCREQERRGH
modifications: tetramethylrhodamine-5-maleimide (TMR) conjugated to cysteine 116; D:P = 0.60
notes: KcsA potassium channel from S. lividans after removal of the C-terminal domain (amino acids 125–160) by chymotrypsin; W67 background with G116C; The limit 124 follows from the stated removal of amino acids 125–160; If the His tag stood at the C-terminus it would be lost with the cleaved fragment; also called truncated protein; proteolytically cleaved TMR-labeled G116C W67 KcsA

Tests used:
[1] = target: the molecule itself; assay: SDS-PAGE; oligomeric status of the purified protein checked by SDS-PAGE (13.5%)
[2] = target: the molecule itself; assay: FRET or BRET; homo-FRET among TMR dyes on C116 of different subunits, read by steady-state and time-resolved fluorescence anisotropy; detergent-solubilised protein, 6 µM (monomer based), 5 mM DDM, 200 mM KCl (also RbCl or NaCl), pH 3.5-7.0, 25 °C; D:P 0.05 to 0.60

Protein	stoichiometry N [1]	binding result [2]
B1	4	
B2		binds
